Data set [1] concerns the target T1, CRP WT (CRPMtb) (Mycobacterium tuberculosis (strain for …, UniProt P9WMH3 1-224)).
T1 sequence: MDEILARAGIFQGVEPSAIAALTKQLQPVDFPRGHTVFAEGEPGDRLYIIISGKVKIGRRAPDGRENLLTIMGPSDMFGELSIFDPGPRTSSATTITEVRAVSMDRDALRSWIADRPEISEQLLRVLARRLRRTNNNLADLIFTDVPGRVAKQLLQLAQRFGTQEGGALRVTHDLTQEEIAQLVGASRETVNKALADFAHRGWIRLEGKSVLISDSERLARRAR
The data set is described as follows: competition. To be noted: protein: recombinant; tags: His tag (Ni2+ purified; pET28a); chain copies: 2; blunt.

For data set [2], the target named is T1, CRP WT (CRPMtb). The data set is described as follows: EMSA; no cAMP; 5 and 15 uM protein. To be noted: protein: recombinant; tags: His tag (Ni2+ purified; pET28a); chain copies: 2; blunt.

B1: 2D3 unlabeled competitor (dsDNA)
DNA 1: CTCTATGTGACGAAGCCCACATCGAC
DNA 2: GTCGATGTGGGCTTCGTCACATAGAG
B1: the binding result with CRP WT (CRPMtb) [1] is listed as “binds”.

B2: 2D3 (dsDNA)
DNA 1: CTCTATGTGACGAAGCCCACATCGAC
DNA 2: GTCGATGTGGGCTTCGTCACATAGAG
Regarding B2, the binding result with CRP WT (CRPMtb) [2] was “binds”.
